Target: PTH 1 receptor (PTH1R), his-tagged (UniProt Q03431)
Assay: BLI

UniProt Q03431, sequence (Q03431 27-593): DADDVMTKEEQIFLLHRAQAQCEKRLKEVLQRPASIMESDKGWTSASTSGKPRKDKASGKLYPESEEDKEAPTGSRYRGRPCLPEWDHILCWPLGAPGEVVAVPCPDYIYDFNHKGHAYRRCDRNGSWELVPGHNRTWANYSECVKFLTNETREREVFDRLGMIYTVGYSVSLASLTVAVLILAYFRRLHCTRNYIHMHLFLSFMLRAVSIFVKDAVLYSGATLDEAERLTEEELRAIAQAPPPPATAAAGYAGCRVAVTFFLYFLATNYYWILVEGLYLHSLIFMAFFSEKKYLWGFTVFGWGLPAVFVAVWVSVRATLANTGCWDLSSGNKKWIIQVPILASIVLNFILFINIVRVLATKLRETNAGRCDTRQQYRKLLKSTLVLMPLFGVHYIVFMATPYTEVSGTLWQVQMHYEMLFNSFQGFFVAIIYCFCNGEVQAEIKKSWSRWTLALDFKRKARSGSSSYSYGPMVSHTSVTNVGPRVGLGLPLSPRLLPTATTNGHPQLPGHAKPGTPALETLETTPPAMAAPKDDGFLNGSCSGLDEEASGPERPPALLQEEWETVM

Row | Kd [µM] | Substance
1 | 2.3 | PTH-Fc fusion protein
2 | 2.31 | Parathyroid Hormone PTH (1-34) (peptide)
